{"source": "patent US20230357323A1", "about": "“HUMAN IL23 RECEPTOR BINDING POLYPEPTIDES” (University of Washington, priority 2020, published 2023)", "key": {"[1]": {"assay": "Proteolytic stability in simulated gastric fluid (SGF), SDS PAGE", "type": "in vitro ADME", "excerpt": "(§1) While resistance to high heat is important for manufacturing and storage, and resistance to chemical denaturant is a good proxy for stability overall, any oral, gut-restricted IL-23R inhibitor will preferably survive the harsh conditions of the gastrointestinal tract, including high acidity and physiological proteases, to reach the site of action intact. To determine feasibility of oral administration, we therefore more directly assessed the stability of our designed IL-23R inhibitors in simulated gastric fluid (SGF), including the protease pepsin at pH 2, and simulated intestinal fluid (SIF), including proteases trypsin and chymotrypsin at pH 6.5. Proteolysis was assessed qualitatively by SDS PAGE at timepoints up to 24 hours.\n(§2) Simulated intestinal fluid (SIF) was prepared as recommended by Jantratid et al. (termed FaSSIFv2) with the addition of proteases trypsin and chymotrypsin each at 30 μg/mL.^18 This composition is denoted as “1x SIF” in the text. In some instances, designed proteins (pure recombinant protein, or yeast libraries as above) or the comparator V565-38F were so stable that minimal degradation could be detected at the maximum duration (24 hours for SDS PAGE experiments, 90 minutes for cytometry experiments). Therefore, we increased the concentrations of both trypsin and chymotrypsin to increase the rate of digestion; these solutions are denoted as “#x SIF”, where for example “2x SIP” denotes a 2-fold increase in concentration of both trypsin and chymotrypsin (to 60 μg/mL), Simulated gastric fluid was prepared as follows: 600 ug/mL pepsin and 34.2 mM NaCl in water, with […] added to adjust pH to 2.\nFor qualitative assessment of proteolytic stability, pure recombinant proteins were digested at 37° C. for 24 hours and proteolytic cleavage assessed by SDS PAGE. From concentrated stock solutions, recombinant proteins were added to stock SGF and SIF solutions to a final concentration of 0.1 mg/mL. […]"}, "[2]": {"assay": "Proteolytic stability in simulated intestinal fluid (SIF), SDS PAGE", "type": "in vitro ADME", "details": "for SIF t1/2: pH 6.5", "excerpt": "as §1\nSeveral reported formulations of simulated intestinal fluid show variable proteolytic activity, and protease activity of human intestinal fluid has not been thoroughly studied. Therefore, as a benchmark for SIF stability, we directly compared our designs to V565-38F, an oral, gut-restricted nanobody inhibitor of TNFa currently in a phase 2 clinical trial for Crohn's disease, in SIF with enzyme concentrations sufficient to degrade this molecule over 24 hours. Design variants with proteolytic stability greater than or equal to V565-38F are likely to be sufficiently stable to enable oral therapy.\nas §2\nFor qualitative assessment of proteolytic stability, pure recombinant proteins were digested at 37° C. for 24 hours and proteolytic cleavage assessed by SDS PAGE. From concentrated stock solutions, recombinant proteins were added to stock SGF and SIF solutions to a final concentration of 0.1 mg/mL. Timepoints were taken at 0, 5, 15, 30, 60 minutes, 4 and 24 hours; at each timepoint, samples were removed and immediately mixed with load dye and boiled for 5 minutes at 95° C. to quench protease activity. 5 ug protein (based on initial digest concentration of 0.1 mg/mL) per timepoint were run on 16% Tris-tricine polyacrylamide gels."}, "IL-23R [3]": {"biological_target": "T1, IL-23R (Homo sapiens, UniProt Q5VWK5)", "T1 sequence (Q5VWK5 24-629)": "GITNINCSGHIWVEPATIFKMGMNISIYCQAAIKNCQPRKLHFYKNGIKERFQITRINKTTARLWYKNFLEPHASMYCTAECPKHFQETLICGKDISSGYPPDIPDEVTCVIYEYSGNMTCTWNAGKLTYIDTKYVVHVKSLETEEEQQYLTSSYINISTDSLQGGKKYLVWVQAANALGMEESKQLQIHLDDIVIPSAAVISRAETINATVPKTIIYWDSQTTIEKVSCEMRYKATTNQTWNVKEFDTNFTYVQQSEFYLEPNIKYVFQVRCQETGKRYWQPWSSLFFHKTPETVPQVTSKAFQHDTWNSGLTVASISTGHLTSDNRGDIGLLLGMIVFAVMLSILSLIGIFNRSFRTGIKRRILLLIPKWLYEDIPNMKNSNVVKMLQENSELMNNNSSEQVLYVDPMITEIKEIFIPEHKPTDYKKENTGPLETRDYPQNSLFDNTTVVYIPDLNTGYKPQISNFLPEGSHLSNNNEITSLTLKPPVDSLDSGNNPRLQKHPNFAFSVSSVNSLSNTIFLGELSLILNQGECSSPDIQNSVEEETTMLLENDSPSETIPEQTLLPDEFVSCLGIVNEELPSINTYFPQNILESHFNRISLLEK", "assay": "IL-23-mediated cell signaling assay (Promega IL-23 Bioassay luciferase reporter cells)", "type": "cell-based", "details": "IL-23 reporter assay; C-terminal versus N-terminal 6-histidine tag", "description": "FIG. 7. Designed IL-23R inhibitor block IL-23-mediated cell signaling in vitro. Cells engineered to express luciferase downstream of IL-23R (Promega) were pre-incubated for 30 minutes with a titration of each inhibitor, then stimulated with 8 ng/mL human IL-23 cytokine for 6 hours. Luciferase substrate was added, luminescence read, and % inhibition of signaling calculated relative to wells with no inhibitor added. IC50 was calculated using linear regression to fit dose response; values are shown above alongside fold increase in potency relative to a competitor molecule PTG compound C.\nNext, we assessed the ability of IL-23R inhibitors to block IL-23-mediated cell signaling. […] IC50 values were determined using linear regression to fit dose response.\nCommercial IL-23 reporter cells (Promega IL-23 Bioassay) expressing luciferase downstream of IL-23R were used to assess inhibition of IL-23-mediated cell signaling. Cells were plated in the inner wells of 96-well tissue culture treated white plates suitable for reading luminescence. Cells were pre-incubated for 30 minutes with a dilution series of each inhibitor, then treated with the EC80 stimulatory concentration of recombinant human IL-23 cytokine determined in preceding experiments (8 ng/mL; R&D 1290-IL). After 6 hours incubation with human IL-23, luciferase substrate was added and luminescence read. […]"}, "IL-23R [4]": {"biological_target": "T1, IL-23R", "assay": "Surface plasmon resonance (SPR) binding affinity to hIL-23R", "design": "his tag (C); purchased"}, "human IL-23R (hIL-23R)": {"biological_target": "T2, human IL-23R (hIL-23R) (Homo sapiens, UniProt Q5VWK5)", "T2 construct": "his tag (C); purchased", "T2 sequence (Q5VWK5 24-629)": "T1 sequence (Q5VWK5 24-629)", "assay": "Biolayer interferometry (BLI) binding to hIL-23R", "details": "biolayer interferometry binding titrations; read-out: affinity (KD) for hIL-23R", "excerpt": "Two designs, 23R_A (SEQ ID NO:10) and 23R_B (SEQ ID NO:110), were highly enriched in the final selection pool and were chosen for further biochemical characterization. Both designs are 3-helix bundles (54 and 53 residues, respectively) which incorporate the native Trp hotspot at the N-terminal end of a helix such that IL-23R residue D118 forms a helix-capping hydrogen bond with the Trp hotspot's free backbone amine, similar to the αD helix of p19 (FIG. 1D). In both designs, this central binding helix has a larger interaction surface with hIL-23R, mediated by additional de novo hotspots, than p19. […]\nVariants were first screened for relative binding to hIL-23R with biolayer interferometry (BLI). hIL-23R was immobilized on the BLI sensor tips and binding to each variant in solution at a constant concentration (50 nM) was measured to qualitatively determine relative performance of the variants. For the best-performing variants, binding constants (KD, including kon, and koff) were quantitatively determined with BLI titration experiments in triplicate. […]\nQualitative and quantitative assessment of binding affinity was performed using biolayer interferometry (ForteBio Octet™ […] and associated software for analysis). […] Kinetic constants were determined from the mathematical fit of a 1:1 binding model."}, "[5]": {"details": "trypsin and chymotrypsin, 37° C., SDS PAGE"}}, "note": "Like-named read-outs stand apart in the source and are kept apart here."}
{"substance": "mB09dslf01-T48I: best mIL-23R inhibitor after optimization for stability and mIL-23R affinity; T48I variant of mB09dslf01; no SEQ ID given (NLWQIFYCLLTCIKRTGDPTCKKLLKALQEAVKKNDEKAVKELAKKAIKYCRSHHHHHH)", "values": [{"measurement": "stability in SGF compared to V565-38F", "setting": "[1]", "result": "more stable"}, {"measurement": "SGF t1/2", "setting": "[1]; simulated gi fluid, pH 2", "result": "greater than 24 hours"}, {"measurement": "3x SIF t1/2", "setting": "[2]; simulated gi fluid", "result": "greater than 24 hours"}]}
{"substance": "PLWQVFYLLNTCIKRTGDPTCKKLAKALRECLKKGDLKACNELADKAVKYINS [B04dslf02IB]", "values": [{"measurement": "effect of C-terminal 6-histidine tag on proteolytic stability", "setting": "[2]; SGF or SIF up to 24 hours, C-terminal versus N-terminal 6-histidine tag", "result": "greatly enhances the proteolytic stability"}, {"measurement": "SIF t1/2", "setting": "[2]; [5]", "result": "30 to 60", "unit": "min"}, {"measurement": "effect of C-terminal 6-histidine tag on potency", "setting": "IL-23R [3]", "result": "no effect on potency"}, {"measurement": "Kd", "setting": "IL-23R [4]", "result": "< 0.001", "unit": "nM"}]}
{"substance": "MEPEKYLRELCKKYYEGKLSQQEAVEEIRKYARKKGLEAWKLVWYFMQCVKRDI [rA11dslf02]", "values": [{"measurement": "SIF t1/2", "setting": "[2]; simulated gi fluid", "result": 60, "unit": "min"}]}
{"substance": "PEPEKYLQELCKKYYEGKLSQQEAVEEIRKYARKWGLEAWKLVWYFMQCVKRDI [rA11dslf02_M1P_R8Q_K35W]", "values": [{"measurement": "stability in SGF compared to V565-38F", "setting": "[1]; SGF", "result": "much more stable"}, {"measurement": "stability in SIF compared to V565-38F", "setting": "[2]; SIF with enzyme concentrations sufficient to degrade V565-38F over 24 hours (3x SIF)", "result": "similarly stable"}, {"measurement": "SIF t1/2", "setting": "[2]; [5]", "result": "240 to 1440", "unit": "min"}, {"measurement": "Kd", "setting": "IL-23R [4]", "result": 0.075, "unit": "nM"}]}
{"substance": "NLWQIFYLLNTCIKRTGDPTCKKLKKALRECEKKGDEKACKELAKKAMKYIRS (NLWQIFYLLNTCIKRTGDPTCKKLKKALRECLKKGDEKACKELAKKAMKYIRS) [B04dslf02]", "values": [{"measurement": "SIF t1/2", "setting": "[2]; [5]", "result": "5 to 15", "unit": "min"}]}
{"substance": "IL-23 cytokine: native ligand; heterodimeric cytokine composed of the p19 subunit and the p40 subunit", "values": [{"measurement": "Kd", "setting": "human IL-23R (hIL-23R)", "result": 1.7, "unit": "nM"}]}
